Measurements taken from patent US20200283532A1 (CANCER RESEARCH TECHNOLOGY, published 2020).

Tests used:
Assay in all cases: flow cytometry, A375Ppuro cells
[1] = target: Peptide (16) AcHN-NK(Biotin)…-OH
[2] = target: Peptide (18) AcHN-NK(Biotin)…-NH2
[3] = target: Peptide (22) DTPA-NK(Biotin)…-OH
[4] = target: Peptide (23) DTPA-GNK(Biotin)…-OH
[5] = target: Peptide (24) DTPA-NK(Biotin)…-NH2
[6] = target: Peptide (25) DTPA-nK(Biotin)…-OH
[7] = target: Peptide (26) DTPA-nK(Biotin)…t-OH

Measured: binding result

B1: integrin αvβ5 (receptor)
chain 1: FNLDVDSPAEYSGPEGSYFGFAVDFFVPSASSRMFLLVGAPKANTTQPGIVEGGQVLKCDWSSTRRCQPIEFDATGNRDYAKDDPLEFKSHQWFGASVRSKQDKILACAPLYHWRTEMKQEREPVGTCFLQDGTKTVEYAPCRSQDIDADGQGFCQGGFSIDFTKADRVLLGGPGSFYWQGQLISDQVAEIVSKYDPNVYSIKYNNQLATRTAQAIFDDSYLGYSVAVGDFNGDGIDDFVSGVPRAARTLGMVYIYDGKNMSSLYNFTGEQMAAYFGFSVAATDINGDDYADVFIGAPLFMDRGSDGKLQEVGQVSVSLQRASGDFQTTKLNGFEVFARFGSAIAPLGDLDQDGFNDIAIAAPYGGEDKKGIVYIFNGRSTGLNAVPSQILEGQWAARSMPPSFGYSMKGATDIDKNGYPDLIVGAFGVDRAILYRARPVITVNAGLEVYPSILNQDNKTCSLPGTALKVSCFNVRFCLKADGKGVLPRKLNFQVELLLDKLKQKGAIRRALFLYSRSPSHSKNMTISRGGLMQCEELIAYLRDESEFRDKLTPITIFMEYRLDYRTAADTTGLQPILNQFTPANISRQAHILLDCGEDNVCKPKLEVSVDSDQKKIYIGDDNPLTLIVKAQNQGEGAYEAELIVSIPLQADFIGVVRNNEALARLSCAFKTENQTRQVVCDLGNPMKAGTQLLAGLRFSVHQQSEMDTSVKFDLQIQSSNLFDKVSPVVSHKVDLAVLAAVEIRGVSSPDHVFLPIPNWEHKENPETEEDVGPVVQHIYELRNNGPSSFSKAMLHLQWPYKYNNNTLLYILHYDIDGPMNCTSDMEINPLRIKISSLQTTEKNDTVAGQGERDHLITKRDLALSEGDIHTLGCGVAQCLKIVCQVGRLDRGKSAILYVKSLLWTETFMNKENQNHSYSLKSSASFNVIEFPYKNLPIEDITNSTLVTTNVTWGIQPAPMPVPVWVIILAVLAGLLLLAVLVFVMYRMGFFKRVRPPQEEQEREQLQPHENGEGNSET
chain 2: GLNICTSGSATSCEECLLIHPKCAWCSKEDFGSPRSITSRCDLRANLVKNGCGGEIESPASSFHVLRSLPLSSKGSGSAGWDVIQMTPQEIAVNLRPGDKTTFQLQVRQVEDYPVDLYYLMDLSLSMKDDLDNIRSLGTKLAEEMRKLTSNFRLGFGSFVDKDISPFSYTAPRYQTNPCIGYKLFPNCVPSFGFRHLLPLTDRVDSFNEEVRKQRVSRNRDAPEGGFDAVLQAAVCKEKIGWRKDALHLLVFTTDDVPHIALDGKLGGLVQPHDGQCHLNEANEYTASNQMDYPSLALLGEKLAENNINLIFAVTKNHYMLYKNFTALIPGTTVEILDGDSKNIIQLIINAYNSIRSKVELSVWDQPEDLNLFFTATCQDGVSYPGQRKCEGLKIGDTASFEVSLEARSCPSRHTEHVFALRPVGFRDSLEVGVTYNCTCGCSVGLEPNSARCNGSGTYVCGLCECSPGYLGTRCECQDGENQSVYQNLCREAEGKPLCSGRGDCSCNQCSCFESEFGKIYGPFCECDNFSCARNKGVLCSGHGECHCGECKCHAGYIGDNCNCSTDISTCRGRDGQICSERGHCLCGQCQCTEPGAFGEMCEKCPTCPDACSTKRDCVECLLLHSGKPDNQTCHSLCRDEVITWVDTIVKDDQEAVLCFYKTAKDCVMMFTYVELPSGKSNLTVLREPECGNTPNAMTILLAVVGSILLVGLALLAIWKLLVTIHDRREFAKFQSERSRARYEMASNPLYRKPISTHTVDFTFNKFNKSYNGTVD
notes: whole, on cells
no binding (tested: 1000 nM): all assays above

B2: integrin αvβ8 (receptor)
chain 1: B1 chain 1
chain 2: EDNRCASSNAASCARCLALGPECGWCVQEDFISGGSRSERCDIVSNLISKGCSVDSIEYPSVHVIIPTENEINTQVTPGEVSIQLRPGAEANFMLKVHPLKKYPVDLYYLVDVSASMHNNIEKLNSVGNDLSRKMAFFSRDFRLGFGSYVDKTVSPYISIHPERIHNQCSDYNLDCMPPHGYIHVLSLTENITEFEKAVHRQKISGNIDTPEGGFDAMLQAAVCESHIGWRKEAKRLLLVMTDQTSHLALDSKLAGIVVPNDGNCHLKNNVYVKSTTMEHPSLGQLSEKLIDNNINVIFAVQGKQFHWYKDLLPLLPGTIAGEIESKAANLNNLVVEAYQKLISEVKVQVENQVQGIYFNITAICPDGSRKPGMEGCRNVTSNDEVLFNVTVTMKKCDVTGGKNYAIIKPIGFNETAKIHIHRNCSCQCEDNRGPKGKCVDETFLDSKCFQCDENKCHFDEDQFSSESCKSHKDQPVCSGRGVCVCGKCSCHKIKLGKVYGKYCEKDDFSCPYHHGNLCAGHGECEAGRCQCFSGWEGDRCQCPSAAAQHCVNSKGQVCSGRGTCVCGRCECTDPRSIGRFCEHCPTCYTACKENWNCMQCLHPHNLSQAILDQCKTSCALMEQQHYVDQTSECFSSPSYLRIFFIIFIVTFLIGLLKVLIIRQVILQWNSNKIKSSSDYRVSASKKDKLILQSVCTRAVTYRREKPEEIKMDISKLNAHETFRCNF
notes: whole, on cells
no binding (tested: 1000 nM): all assays above
